# Results published in patent US20190359704A1 (Chugai, published 2019).
# Positions count from the first letter of the chain named.
# T1: human IL-6 receptor (soluble hIL-6R) (human, UniProt P08887 20-357, limits assumed, biotin-labeled in the ELISA experiments (sites not given))
# T1 construct: also called biotin-labeled hIL-6R
# T1 sequence: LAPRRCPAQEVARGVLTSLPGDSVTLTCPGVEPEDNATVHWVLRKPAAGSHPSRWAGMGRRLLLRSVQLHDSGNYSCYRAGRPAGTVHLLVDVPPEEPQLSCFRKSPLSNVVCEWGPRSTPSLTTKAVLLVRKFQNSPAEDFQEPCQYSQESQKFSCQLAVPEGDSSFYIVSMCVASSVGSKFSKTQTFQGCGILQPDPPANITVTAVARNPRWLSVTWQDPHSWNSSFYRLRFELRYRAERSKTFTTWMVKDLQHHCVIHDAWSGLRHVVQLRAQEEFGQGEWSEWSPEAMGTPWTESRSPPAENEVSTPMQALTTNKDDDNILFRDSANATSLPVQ
# T2: membrane-type human IL-6R expressed on cells (human, UniProt P08887 20-468)
# T2 construct: These are Ba/F3 cells (BaF/hIL-6R, WO2012/073992) or CHO cells expressing human IL-6 receptor; also called hIL-6R expressed on cell membrane; cell-membrane hIL-6R
# T2 sequence: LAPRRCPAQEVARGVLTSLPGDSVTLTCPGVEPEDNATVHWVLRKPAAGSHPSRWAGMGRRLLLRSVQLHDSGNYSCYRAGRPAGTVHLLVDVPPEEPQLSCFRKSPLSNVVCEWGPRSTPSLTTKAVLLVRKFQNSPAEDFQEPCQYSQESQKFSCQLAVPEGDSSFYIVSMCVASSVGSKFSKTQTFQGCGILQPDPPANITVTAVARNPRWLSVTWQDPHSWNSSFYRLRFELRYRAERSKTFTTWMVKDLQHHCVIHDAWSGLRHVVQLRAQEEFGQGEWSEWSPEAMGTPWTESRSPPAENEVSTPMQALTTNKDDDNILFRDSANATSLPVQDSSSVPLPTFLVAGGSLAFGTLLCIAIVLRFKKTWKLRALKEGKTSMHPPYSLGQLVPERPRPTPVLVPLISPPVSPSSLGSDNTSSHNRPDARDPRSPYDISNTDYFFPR
# B1: I6NMSC1-3_A11 (antibody, human IgG1, lambda, V domains shown)
# VH: QVQLQESGGGVVQPGRSLRLSCAASGFTFSSYAMHWVRQAPGKGLEWVAVISYDGSNKYYADSVKGRFTISRDNSKNTLYLQMNSLRAEDTAVYYCARDAVTGDDWYFDLWGRGTLVTVSS
# VL: SYELTQPPSVSVAPGKTARITCGGNNIGSKSVHWYQQKPGQAPVLVVYDDSDRPSGIPERFSGSNSGNTATLTISRVEAGDEADYYCQVWDSSSDHPVFGGGTKLTVLG
# B2: GC413 (antibody, human IgG1, kappa, L234A L235A, N297A, V domains shown)
# VH: QVQLVQSGAEVKKPGASVKVSCKASGYTFTDYEMHWIRQPPGQGLEWIGAIDPKTGDTAYSQKFKGRVTLTADKSTSTAYMELSSLTSEDTAVYYCTRFYSYTYWGQGTLVTVSS
# VL: DIVMTQSPLSLPVTPGEPASISCRSSQSLVHSNRNTYLHWYQQKPGQAPRLLIYKVSNRFSGVPDRFSGSGSGTDFTLKISRVEAEDVGVYYCSQNTHVPPTFGQGTKLEIKR
# notes: also called anti-human glypican 3 antibody GC413; anti-human glypican-3 antibody GC413
# B3: 6RAD2C1-4_001 (antibody, human IgG1, kappa, V domains shown)
# VH: EVQLVESGGDLVKPGGGLRLSCAASGFTFSGHTMNWVRQAPGKGLEWVSSISSRSNYIYYADSVKGRFTISRDNAKNSLYLQMNSLRAEDTAVYYCARYGRLHDRNWVFDYWGQGTLVTVSS
# VL: QSALTQPPSASGSPGQTVTISCTGTSTDVGDYNYVSWYQQHPGKAPKLMIYQVSKKPSGVPDRFSGSKSGNTASLTVSGLQAEDEADYFCSSRSYGAGVVFGGGTKLTVLR
# notes: also called 6RAD2C1-4_01
# B4: 6RAD2C1-4_030 (antibody, human IgG1, kappa, V domains shown)
# VH: B3 VH with G31S, H32Y, N56G, I58A, Y99F, R101A, H103N, D104T, R105L
# VL: B3 VL with S92T, S94T, Y95A, G96N, V100L
# notes: also called 6RAD2C1-4_30
# B5: 6RAD2C1-4_076 (antibody, human IgG1, kappa, V domains shown)
# VH: B3 VH with H32Y, N56S, Y59D, R101A, H103G, D104Q
# VL: QSALTQPPSASGSPGQTVTISCTGTSTDVGDYNYVSWYQQHPGKAPKLMIYQTSKRPSGVPDRFSGSKSGNTASLTVSGLQAEDEADYFCSSRSIKHPVFGGGTKLTVLR
# notes: also called 6RAD2C1-4_76
# B6: 6RDL3C1-4_085 (antibody, human IgG1, kappa, V domains shown)
# VH: B3 VH
# VL: B3 VL
# notes: also called 6RDL3C1-4_85
# B7: 6RAD2C1-4_005 (antibody, human IgG1, kappa, V domains shown)
# VH: B3 VH with G31T, N56S, Y59H, Y99F, R101K, H103G, D104E
# VL: B3 VL with S92V, Y95D, A97H, V99P, V100M
# notes: also called 6RAD2C1-4_05
# B8: 6RAD2C1-4_011 (antibody, human IgG1, kappa, V domains shown)
# VH: B3 VH with N56S, R101A, H103G, D104Q, R105M
# VL: B3 VL with Q52S, K56R, Y95S, G96S, A97M, G98N, V100L
# notes: also called 6RAD2C1-4_11
# B9: 6RAD2C1-4_026 (antibody, human IgG1, kappa, V domains shown)
# VH: B3 VH with H32Y, I58A, Y59H, H103G
# VL: B3 VL with D31A, Q52K, S92L, S94A, Y95A, G96T, A97T, V100L
# notes: also called 6RAD2C1-4_26
# B10: 6RNMSC1-2_F02 (antibody, human IgG1, kappa)
# heavy: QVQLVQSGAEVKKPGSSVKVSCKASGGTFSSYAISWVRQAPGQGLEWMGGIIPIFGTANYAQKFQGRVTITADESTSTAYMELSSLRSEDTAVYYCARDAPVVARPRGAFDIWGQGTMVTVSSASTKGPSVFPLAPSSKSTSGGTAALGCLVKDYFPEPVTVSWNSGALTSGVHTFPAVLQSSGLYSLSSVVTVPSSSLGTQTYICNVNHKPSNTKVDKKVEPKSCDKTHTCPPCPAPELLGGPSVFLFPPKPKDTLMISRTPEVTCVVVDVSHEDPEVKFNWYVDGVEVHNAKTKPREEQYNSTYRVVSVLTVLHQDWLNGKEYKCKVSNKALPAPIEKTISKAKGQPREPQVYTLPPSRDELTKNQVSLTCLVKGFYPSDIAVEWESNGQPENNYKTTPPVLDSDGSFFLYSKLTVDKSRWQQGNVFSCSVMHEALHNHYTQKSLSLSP
# light: DIVMTQTPLSSPVTLGQPASISCRSSQSLVHSDGNTYLSWLQQRPGQPPRLLIHEISNRFSGVPDRFSGSGAGTNFTLKISRVEAEDVGVYYCMQATQFPRTFGQGTKVEIKRTVAAPSVFIFPPSDEQLKSGTASVVCLLNNFYPREAKVQWKVDNALQSGNSQESVTEQDSKDSTYSLSSTLTLSKADYEKHKVYACEVTHQGLSSPVTKSFNRGEC
# notes: also called clone 6RNMSC1-2_F02
# B11: MRA (antibody, human IgG1, kappa, V domains shown)
# VH: QVQLQESGPGLVRPSQTLSLTCTVSGYSITSDHAWSWVRQPPGRGLEWIGYISYSGITTYNPSLKSRVTMLRDTSKNQFSLRLSSVTAADTAVYYCARSLARTTAMDYWGQGSLVTVSS
# VL: DIQMTQSPSSLSASVGDRVTITCRASQDISSYLNWYQQKPGKAPKLLIYYTSRLHSGVPSRFSGSGSGTDFTFTISSLQPEDIATYYCQQGNTLPYTFGQGTKVEIKR
# notes: also called known anti-human IL-6R antibody MRA; control antibody MRA
# Key:
# [1] = molecular target: T3, human IL-6 (human, biotin-labeled in the ELISA experiments (sites not given)); test: SPR (Biacore T200), A11 immobilised on CM5, 1 µmol/L IL-6 as analyte for 60 s, 25 °C, kynurenine concentration varied (axis in µmol/L)
# T3 construct: ELISA used biotin-labeled human IL-6; SPR used human IL-6 from Kamakura Techno-Science, Inc; also called biotin-labeled human IL-6
# Protocol: The running buffer used was 10 mmol/1 ACES, 150 mmol/l NaCl, 0.05% (w/v) Tween20, pH 7.4. […] All was immobilized onto sensor chip CM5 by amine coupling, and as an analyte IL-6 was diluted to 1 μmol/l with 10 mmol/1 ACES, 150 mmol/l NaCl, 0.05% (w/v) Tween20, pH 7.4 containing kynurenine at various concentrations, and allowed to interact for 60 seconds to observe changes in the amount of binding.
# [2] = molecular target: T3, human IL-6; test: SPR Biacore T200, A11 captured on protein A/G CM5 chip, human IL-6 analyte, 37 C, running buffer with 100 µmol/l kynurenine; SPR kinetics, A11 captured on the chip, IL-6 analyte, 100 µmol/l kynurenine
# Protocol: Sensor chip CM5 (GE Healthcare) was immobilized with an appropriate amount of protein A/G (Invitrogen) by amine coupling. Antibodies of interest were captured by the chip to allow interaction to IL-6 as an antigen. The two types of running buffers used were 10 mmol/1 ACES, 150 mmol/l NaCl, 0.05% (w/v) Tween20, 100 μmol/l kynurenine, pH 7.4, and 10 mmol/1 ACES, 150 mmol/l NaCl, 0.05% (w/v) Tween20, pH 7.4. The interaction with IL-6 as an antigen was assessed at 37° C. The buffer used to dilute IL-6 was the same running buffer as described above.
# Then, the running buffer was injected at a flow rate of 5 μl/min for three minutes. After observation of human IL-6 dissociation from the antibody, 10 mmol/l glycine-HCl (pH 1.5) was injected at a flow rate of 30 μl/min for 30 seconds to regenerate the sensor chip. […] Each parameter was calculated using the Biacore T200 Evaluation Software (GE Healthcare).
# [3] = molecular target: T1, human IL-6 receptor (soluble hIL-6R); test: ELISA, biotin-labeled hIL-6R on streptavidin plate, absorbance 450 nm; seven conditions of Table 18
# [4] = molecular target: T4, human serum albumin (human, UniProt P02768 25-609, biotin-labeled (sites not given)); test: ELISA, biotin-labeled HSA on streptavidin plate, absorbance 450 nm; nine small-molecule conditions of Table 3
# T4 construct: also called HSA; biotin-labeled HSA
# [5] = molecular target: T1, human IL-6 receptor (soluble hIL-6R); test: SPR Biacore T200, IL-6R immobilised on CM5, antibody analyte in a concentration series, 1 mM ATP, 25 C; KD from plot of equilibrium value against antibody concentration; SPR, IL-6R on the chip, antibody concentration series, 1 mM ATP, 25 C
# Protocol: The running buffer was used: 20 mmol/1 ACES, 150 mmol/l NaCl, 0.05% (w/v) Tween20, pH 7.4. Assay was carried out at 25° C. […] For dilution of the antibodies, the running buffer or the running buffer containing any one of ATP, ADP, AMP, cAMP, and adenosine (ADO) were used. The final concentration of each small molecule and the final concentration of each antibody were adjusted to 1 mM and 1 μM, respectively. Meanwhile, under the 1 mM ATP condition, assay was carried out with a series of stepwise antibody concentrations. The dissociation constant KD (mol/L) of each clone for IL-6R was calculated from a plot of equilibrium value against antibody concentration. The parameters were calculated using the Biacore T200 Evaluation Software (GE Healthcare).
# [6] = molecular target: T1, human IL-6 receptor (soluble hIL-6R); test: SPR Biacore T200, antibody captured on protein A CM5 chip, IL-6R analyte, 25 C, with 100 µmol/l kynurenine; SPR, antibody captured on the chip, IL-6R as analyte, 100 µmol/l kynurenine
# Protocol: Each parameter was calculated using the Biacore T200 Evaluation Software (GE Healthcare).
# [7] = molecular target: T2, membrane-type human IL-6R expressed on …; test: flow cytometry, BaF/hIL-6R cells, secondary antibody against the constant region, with or without 100 µM kynurenine
# Protocol: An appropriate number of BaF/hIL-6R cells were prepared and blocked with PBS containing 2% FBS on ice for one hour or more. […] In this step, the antibodies were contacted with cell-membrane hIL-6R on ice for 30 minutes. […] Then, in the presence or absence of kynurenine, the complex was contacted with a secondary antibody (Beckman Coulter IM1627) that recognizes the antibody constant region. After 30 minutes of incubation with the antibody on ice, the cells were again washed with Wash Buffer and then re-suspended in PBS/2% FBS.
Binder,Kd [5],other results
B1,–,"KD printed beside the curve of IL-6 binding against the kynurenine concentration (per paragraph 715 the KD of kynurenine for forming the A11/IL-6/kynurenine complex, not the antibody-antigen KD) [1]: 32 nM; Kd [2]: 1000 nM"
B2,–,binding result [3]: no binding (tested: 2.5 µg/ml); binding result [4]: no binding (tested: 2.5 µg/ml)
B3,300 nM,–
B4,330 nM,–
B5,250 nM,–
B6,390 nM,–
B7,340 nM,–
B8,230 nM,–
B9,210 nM,–
B10,–,Kd [6]: 1500 nM
B11,–,binding result [7]: binds
